This series deals with the molecule itself. The experiment in a line: NMR relaxation (T1, T2, heteronuclear NOE); 15N relaxation at 600 MHz and 30°C; correlation time 14.8 ns.

As usually defined, the stoichiometry N is a count of units in the complex or per binding partner.

B1: recombinant mouse Nerve Growth Factor (mNGF) (natural protein, UniProt P01139 122-241, looked up)
chain: SSTHPVFHMGEFSVCDSVSVWVGDKTTATDIKGKEVTVLAEVNINNSVFRQYFFETKCRASNPVESGCRGIDSKHWNSYCTTTHTFVKALTTDEKQAAWRFIRIDTACVCVLSRKATRRG
modifications: 15N or 15N-13C isotope labeled
notes: Nerve Growth Factor (beta-NGF), mouse, mature form cut from the precursor proNGF; 118 amino acids per protomer (S1 to residue 118), non-covalent homodimer of 26 kDa; numbers count on: the mature protein; Expression host and the details of the construct are in the Supplementary Information and in Paoletti et al., 2011; also called mouse NGF
B1: the “stoichiometry N” value was 2.

The values above are taken from article PMC5183593, “Conformational Rigidity within Plasticity Promotes Differential Target Recognition of Nerve Growth Factor” (Frontiers in Molecular Biosciences, 2016).
